Among the data in PMC5365662, “A Short Double-Stapled Peptide Inhibits Respiratory Syncytial Virus Entry and Spreading” (Antimicrobial Agents and Chemotherapy, 2017) are helicity and EC50 values, retold here.

Usually EC50 stands for the concentration at which the effect is half-maximal.

A short description of one series: circular dichroism. The settings on record: 10 mM phosphate; pH 7.5; 25 °C; 50 uM.
Series [1] deals with rHRSV-mCherry in HEp-2 cells. Description: rHRSV-mCherry inhibition assay. The class given is cell-based, human respiratory syncytial virus. The settings on record: Table 3 (Ala scan); HEp-2 cells, rHRSV-mCherry MOI 0.2, 2-fold serial dilutions (11 dilutions), duplicate; ± SD of fit. The procedure:
To measure the inhibitory activity of the peptide, the mCherry red fluorescence was quantified 48 h postinfection (p.i.).
Viral replication was quantified by measuring the mCherry fluorescence at 48 h p.i. and normalized based on the fluorescence of infected and untreated cells. (B) Cytotoxicity assay. HEp-2 cells were incubated in the presence of serial dilutions of peptides, and cell survival was quantified using the CellTiter-Glo Luminescent cell viability assay 24 h after the addition of the peptides. The signal was normalized based on the luminescence obtained for untreated cells. Error bars are standard deviations from duplicates.
HEp-2 cells were seeded at 5 × 10^4 cells per well in a 96-well plate the day before the infection. Peptides were 2-fold serially diluted in dimethyl sulfoxide (DMSO) (11 dilutions) and then further diluted in EMEM without phenol red and preincubated for 15 to 20 min with rHRSV-mCherry ([24]) at a final dilution with an MOI of 0.2 ([24]). The cells were incubated with the virus-peptide mixtures for a period of 1.5 to 2 h. The medium was then replaced by EMEM without phenol red containing 2% fetal bovine serum and the same concentration of peptide as the one that was used during the infection step. Plates were incubated 48 h at 37°C, and the mCherry fluorescence was measured using a spectrofluorometer (Tecan infinite M200PRO) with excitation and emission wavelengths of 580 and 620 nm, respectively. Relative fluorescence was normalized by the fluorescence of nontreated infected cells. Noninfected HEp-2 cells were used as standards for fluorescence background levels. Each experiment was performed in duplicate and repeated at least twice. The resulting inhibition curves were fitted in Igor Pro as described above.

Bridge positions count the residues as written; N and C are the ends. Square brackets hold non-standard residues; d marks the D form. Peptide text beside a SMILES is read from it. R8 = C=CCCCCCC[C@@](C)(N)C(=O)O; R5 = C=CCCC[C@@](C)(N)C(=O)O; S5 = C=CCCC[C@](C)(N)C(=O)O

For `CC[C@H](C)[C@@H]1NC(=O)[C@H](Cc2ccccc2)NC(=O)[C@@](C)(NC(=O)[C@H](CC(C)C)NC(=O)[C@H](CO)NC(=O)[C@]2(C)CCCC=CCCC[C@@](C)(NC(=O)[C@H](CCC(=O)O)NC(C)=O)C(=O)N[C@@H]([C@@H](C)CC)C(=O)N[C@@H](CC(N)=O)C(=O)N2)CCCC=CCCC[C@@](C)(C(=O)N[C@@H](CO)C(=O)N[C@@H](CC(=O)O)C(=O)N[C@@H](C)C(=O)N[C@@H](CC(C)C)C(=O)N[C@@H](CC(C)C)C(=O)N[C@@H](Cc2c[nH]cn2)C(=O)N[C@@H](CC(N)=O)C(=O)N[C@H](C(N)=O)C(C)C)NC(=O)[C@H](CCCNC(=N)N)NC1=O` [Peptide E511A] (Ac-E[R5]IN[S5]SL[S5]FIR[S5]SDALLHNV-NH2; staple 2-5, 8-12), in “circular dichroism”, the helicity came out at 73%. For the same compound, in series [1], the EC50 is 1000 ± 30 nM.

With `CC[C@H](C)[C@H](NC(=O)[C@H](CCCCN)NC(=O)[C@H](CCC(=O)O)NC(C)=O)C(=O)N[C@@]1(C)CCCC=CCCC[C@@](C)(C(=O)N[C@@H](Cc2ccccc2)C(=O)N[C@H](C(=O)N[C@@]2(C)CCCC=CCCC[C@@](C)(C(=O)N[C@@H](CC(C)C)C(=O)N[C@@H](CC(C)C)C(=O)N[C@@H](Cc3c[nH]cn3)C(=O)N[C@@H](CC(N)=O)C(=O)N[C@H](C(N)=O)C(C)C)NC(=O)[C@H](C)NC(=O)[C@H](CO)NC(=O)[C@H](CCCCN)NC2=O)[C@@H](C)CC)NC(=O)[C@H](CC(C)C)NC(=O)[C@H](CO)NC(=O)[C@H](CCC(N)=O)NC1=O` [Peptide D510A] (Ac-EKI[S5]QSL[S5]FI[S5]KSA[S5]LLHNV-NH2; staple 4-8, 11-15), the helicity in the series “circular dichroism” was 44%. This compound came in with an EC50 in series [1] of 1100 ± 80 nM.

In the case of `CC[C@H](C)[C@H](NC(=O)[C@H](CCCCN)NC(=O)[C@H](CCC(=O)O)NC(C)=O)C(=O)N[C@@]1(C)CCCC=CCCC[C@@](C)(C(=O)N[C@@H](Cc2ccccc2)C(=O)N[C@H](C(=O)N[C@@]2(C)CCCC=CCCC[C@@](C)(C(=O)N[C@@H](CC(C)C)C(=O)N[C@@H](CC(C)C)C(=O)N[C@@H](Cc3c[nH]cn3)C(=O)N[C@@H](CC(N)=O)C(=O)N[C@H](C(N)=O)C(C)C)NC(=O)[C@H](CC(=O)O)NC(=O)[C@H](CO)NC(=O)[C@H](CCCCN)NC2=O)[C@@H](C)CC)NC(=O)[C@H](CC(C)C)NC(=O)[C@H](CO)NC(=O)[C@H](C)NC1=O` [Peptide Q501A] (Ac-EKI[S5]ASL[S5]FI[S5]KSD[S5]LLHNV-NH2; staple 4-8, 11-15), the helicity in the series “circular dichroism” is 12%. Besides, it took 280 ± 430 nM to reach a half-maximal effect in series [1] (EC50).

In the series “circular dichroism”, `CC[C@H](C)[C@H](NC(=O)[C@H](Cc1ccccc1)NC(=O)[C@]1(C)CCCC=CCCC[C@](C)(NC(=O)[C@@H](NC(=O)[C@H](CCCCN)NC(=O)[C@H](CCC(=O)O)NC(C)=O)[C@@H](C)CC)C(=O)N[C@@H](CCC(N)=O)C(=O)N[C@@H](CO)C(=O)N[C@@H](CC(C)C)C(=O)N1)C(=O)N[C@@H](CCCNC(=N)N)C(=O)N[C@]1(C)CCCCCCC=CCCC[C@@](C)(C(=O)N[C@H](C(N)=O)C(C)C)NC(=O)[C@H](Cc2c[nH]cn2)NC(=O)[C@H](CC(C)C)NC(=O)[C@H](CC(C)C)NC(=O)[C@H](CCC(=O)O)NC(=O)[C@H](CC(=O)O)NC(=O)[C@H](CO)NC1=O` [Peptide 4bf] (Ac-EKI[S5]QSL[S5]FIR[R8]SDELLH[S5]V-NH2; staple 4-8, 12-19) gave a helicity of 88.9%.

`CC[C@H](C)[C@H](NC(=O)[C@H](CCCCN)NC(=O)[C@H](CCC(=O)O)NC(C)=O)C(=O)N[C@@]1(C)CCCC=CCCC[C@@](C)(C(=O)N[C@@H](Cc2ccccc2)C(=O)N[C@H](C(=O)N[C@@]2(C)CCCC=CCCC[C@@](C)(C(=O)N[C@@H](CC(C)C)C(=O)N[C@@H](CC(C)C)C(=O)N[C@@H](Cc3c[nH]cn3)C(=O)N[C@@H](C)C(=O)N[C@H](C(N)=O)C(C)C)NC(=O)[C@H](CC(=O)O)NC(=O)[C@H](CO)NC(=O)[C@H](CCCCN)NC2=O)[C@@H](C)CC)NC(=O)[C@H](CC(C)C)NC(=O)[C@H](CO)NC(=O)[C@H](CCC(N)=O)NC1=O` [Peptide N515A] (Ac-EKI[S5]QSL[S5]FI[S5]KSD[S5]LLHAV-NH2; staple 4-8, 11-15) showed a helicity in “circular dichroism” of 59%. Also, the half-maximal effective concentration (EC50) in series [1] is 2710 ± 2930 nM.

`CC[C@H](C)[C@H](NC(=O)[C@H](CCCCN)NC(=O)[C@H](CCC(=O)O)NC(C)=O)C(=O)N[C@@]1(C)CCCC=CCCC[C@@](C)(C(=O)N[C@@H](Cc2ccccc2)C(=O)N[C@H](C(=O)N[C@@]2(C)CCCC=CCCC[C@@](C)(C(=O)N[C@@H](CC(C)C)C(=O)N[C@@H](CC(C)C)C(=O)N[C@@H](Cc3c[nH]cn3)C(=O)N[C@@H](CC(N)=O)C(=O)N[C@H](C(N)=O)C(C)C)NC(=O)[C@H](CC(=O)O)NC(=O)[C@H](CO)NC(=O)[C@H](CCCCN)NC2=O)[C@@H](C)CC)NC(=O)[C@H](C)NC(=O)[C@H](CO)NC(=O)[C@H](CCC(N)=O)NC1=O` [Peptide L503A] (Ac-EKI[S5]QSA[S5]FI[S5]KSD[S5]LLHNV-NH2; staple 4-8, 11-15) showed a helicity in “circular dichroism” of 38%. Besides, the EC50 in series [1] was 950 ± 530 nM.

In the series “circular dichroism”, `CC[C@H](C)[C@H](NC(=O)[C@H](Cc1ccccc1)NC(=O)[C@]1(C)CCCC=CCCC[C@](C)(NC(=O)[C@H](C)NC(=O)[C@H](CCCCN)NC(=O)[C@H](CCC(=O)O)NC(C)=O)C(=O)N[C@@H](CCC(N)=O)C(=O)N[C@@H](CO)C(=O)N[C@@H](CC(C)C)C(=O)N1)C(=O)N[C@@]1(C)CCCC=CCCC[C@@](C)(C(=O)N[C@@H](CC(C)C)C(=O)N[C@@H](CC(C)C)C(=O)N[C@@H](Cc2c[nH]cn2)C(=O)N[C@@H](CC(N)=O)C(=O)N[C@H](C(N)=O)C(C)C)NC(=O)[C@H](CC(=O)O)NC(=O)[C@H](CO)NC(=O)[C@H](CCCCN)NC1=O` [Peptide I499A] (Ac-EKA[S5]QSL[S5]FI[S5]KSD[S5]LLHNV-NH2; staple 4-8, 11-15) came in with a helicity of 24%. In addition, a half-maximal effect in series [1] (EC50) was put at 1300 ± 890 nM.

For the compound `CC[C@H](C)[C@H](NC(=O)[C@H](C)NC(=O)[C@]1(C)CCCC=CCCC[C@](C)(NC(=O)[C@@H](NC(=O)[C@H](CCCCN)NC(=O)[C@H](CCC(=O)O)NC(C)=O)[C@@H](C)CC)C(=O)N[C@@H](CCC(N)=O)C(=O)N[C@@H](CO)C(=O)N[C@@H](CC(C)C)C(=O)N1)C(=O)N[C@@]1(C)CCCC=CCCC[C@@](C)(C(=O)N[C@@H](CC(C)C)C(=O)N[C@@H](CC(C)C)C(=O)N[C@@H](Cc2c[nH]cn2)C(=O)N[C@@H](CC(N)=O)C(=O)N[C@H](C(N)=O)C(C)C)NC(=O)[C@H](CC(=O)O)NC(=O)[C@H](CO)NC(=O)[C@H](CCCCN)NC1=O` [Peptide F505A] (Ac-EKI[S5]QSL[S5]AI[S5]KSD[S5]LLHNV-NH2; staple 4-8, 11-15), the helicity in the series “circular dichroism” worked out at 64%. Moreover, the EC50 in series [1] stood at 1390 ± 100 nM.

The compound `CC[C@H](C)[C@H](NC(=O)[C@H](CCCCN)NC(=O)[C@H](CCC(=O)O)NC(C)=O)C(=O)N[C@@]1(C)CCCC=CCCC[C@@](C)(C(=O)N[C@@H](Cc2ccccc2)C(=O)N[C@H](C(=O)N[C@@]2(C)CCCC=CCCC[C@@](C)(C(=O)N[C@@H](C)C(=O)N[C@@H](CC(C)C)C(=O)N[C@@H](Cc3c[nH]cn3)C(=O)N[C@@H](CC(N)=O)C(=O)N[C@H](C(N)=O)C(C)C)NC(=O)[C@H](CC(=O)O)NC(=O)[C@H](CO)NC(=O)[C@H](CCCCN)NC2=O)[C@@H](C)CC)NC(=O)[C@H](CC(C)C)NC(=O)[C@H](CO)NC(=O)[C@H](CCC(N)=O)NC1=O` [Peptide L512A] (Ac-EKI[S5]QSL[S5]FI[S5]KSD[S5]ALHNV-NH2; staple 4-8, 11-15) returned a helicity in the series “circular dichroism” of 45%. In series [1], this compound yielded an EC50 of 880 ± 60 nM.

`CC[C@H](C)[C@H](NC(=O)[C@H](CCCCN)NC(=O)[C@H](CCC(=O)O)NC(C)=O)C(=O)N[C@@]1(C)CCCC=CCCC[C@@](C)(C(=O)N[C@@H](Cc2ccccc2)C(=O)N[C@H](C(=O)N[C@@]2(C)CCCC=CCCC[C@@](C)(C(=O)N[C@@H](CC(C)C)C(=O)N[C@@H](CC(C)C)C(=O)N[C@@H](C)C(=O)N[C@@H](CC(N)=O)C(=O)N[C@H](C(N)=O)C(C)C)NC(=O)[C@H](CC(=O)O)NC(=O)[C@H](CO)NC(=O)[C@H](CCCCN)NC2=O)[C@@H](C)CC)NC(=O)[C@H](CC(C)C)NC(=O)[C@H](CO)NC(=O)[C@H](CCC(N)=O)NC1=O` [Peptide H514A] (Ac-EKI[S5]QSL[S5]FI[S5]KSD[S5]LLANV-NH2; staple 4-8, 11-15) returned a helicity in the series “circular dichroism” of 55%. The compound further registered a concentration for a half-maximal effect (EC50) in series [1] of 520 ± 70 nM.

Turning to `CC[C@H](C)[C@H](NC(=O)[C@H](CCCCN)NC(=O)[C@H](CCC(=O)O)NC(C)=O)C(=O)N[C@@H](C)C(=O)N[C@@H](CCC(N)=O)C(=O)N[C@@H](CO)C(=O)N[C@@H](CC(C)C)C(=O)N[C@@]1(C)CCCC=CCCC[C@@](C)(C(=O)N[C@@H](CO)C(=O)N[C@@H](CC(=O)O)C(=O)N[C@@]2(C)CCCC=CCCC[C@@](C)(C(=O)N[C@H](C(N)=O)C(C)C)NC(=O)[C@H](Cc3c[nH]cn3)NC(=O)[C@H](CC(C)C)NC(=O)[C@H](CC(C)C)NC2=O)NC(=O)[C@H](CCCNC(=N)N)NC(=O)[C@H]([C@@H](C)CC)NC(=O)[C@H](Cc2ccccc2)NC1=O` [Peptide N500A] (Ac-EKIAQSL[S5]FIR[S5]SD[S5]LLH[S5]V-NH2; staple 8-12, 15-19), the helicity in the series “circular dichroism” is 60%. Moreover, the EC50 in series [1] is 20400 ± 2400 nM.
